Data taken from patent US20220064312A1 (SHIONOGI, published 2022).

Assays:
[1] = biological target: T1, N-ter hCCR4-hCCR8 (human); experiment: flow cytometry, transfected Expi293 cells
T1 construct: chimera on Expi293 cells; remaining hCCR8 ranges derived from the stated swapped ranges and the 355-residue length; also called N-terminal region human CCR4-substituted human CCR8
T1 chain: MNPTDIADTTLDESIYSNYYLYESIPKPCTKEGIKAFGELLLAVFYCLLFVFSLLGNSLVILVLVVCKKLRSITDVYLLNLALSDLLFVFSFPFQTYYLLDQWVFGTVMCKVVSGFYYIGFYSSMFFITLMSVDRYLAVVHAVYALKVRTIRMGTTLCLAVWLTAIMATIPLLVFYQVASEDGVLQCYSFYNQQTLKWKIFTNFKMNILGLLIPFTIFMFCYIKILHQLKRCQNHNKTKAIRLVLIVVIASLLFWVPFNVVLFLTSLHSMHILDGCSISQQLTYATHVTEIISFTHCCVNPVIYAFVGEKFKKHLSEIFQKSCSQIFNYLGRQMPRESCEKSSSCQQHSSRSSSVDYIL

[2] = biological target: T2, human CCR4 (human, UniProt P51679 1-360); experiment: flow cytometry, transfected Expi293 cells
T2 construct: also called hCCR4
T2 sequence: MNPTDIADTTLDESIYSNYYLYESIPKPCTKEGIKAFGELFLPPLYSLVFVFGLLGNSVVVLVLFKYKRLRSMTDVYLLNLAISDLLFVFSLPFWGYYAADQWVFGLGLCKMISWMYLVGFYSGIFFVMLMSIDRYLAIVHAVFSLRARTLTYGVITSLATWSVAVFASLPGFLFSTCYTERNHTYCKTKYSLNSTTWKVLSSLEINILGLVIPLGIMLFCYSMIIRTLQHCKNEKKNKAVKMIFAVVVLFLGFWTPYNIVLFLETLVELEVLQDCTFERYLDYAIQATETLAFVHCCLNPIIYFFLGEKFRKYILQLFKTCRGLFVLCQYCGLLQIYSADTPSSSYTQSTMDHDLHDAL

[3] = biological target: hCCR8 (Y17A) (human, UniProt P51685 1-355); experiment: flow cytometry, transfected Expi293 cells
Sequence of hCCR8 (Y17A) (P51685 whole entry Y17A): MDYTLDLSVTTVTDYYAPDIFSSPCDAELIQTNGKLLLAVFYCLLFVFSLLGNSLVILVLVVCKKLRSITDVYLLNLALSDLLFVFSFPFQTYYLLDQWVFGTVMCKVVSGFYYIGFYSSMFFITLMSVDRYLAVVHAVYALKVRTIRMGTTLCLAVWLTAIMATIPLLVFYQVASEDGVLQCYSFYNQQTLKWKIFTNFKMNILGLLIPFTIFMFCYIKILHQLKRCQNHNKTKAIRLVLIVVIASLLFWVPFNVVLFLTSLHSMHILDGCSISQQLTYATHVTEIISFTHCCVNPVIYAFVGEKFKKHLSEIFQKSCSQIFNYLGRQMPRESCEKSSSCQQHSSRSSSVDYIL

[4] = biological target: hCCR8 (K35A) (human, UniProt P51685 1-355); experiment: flow cytometry, transfected Expi293 cells
[5] = biological target: T3, mouse CCR8 (mouse, UniProt P56484 1-353); experiment: flow cytometry, transfected Expi293 cells
T3 construct: also called mCCR8
T3 sequence: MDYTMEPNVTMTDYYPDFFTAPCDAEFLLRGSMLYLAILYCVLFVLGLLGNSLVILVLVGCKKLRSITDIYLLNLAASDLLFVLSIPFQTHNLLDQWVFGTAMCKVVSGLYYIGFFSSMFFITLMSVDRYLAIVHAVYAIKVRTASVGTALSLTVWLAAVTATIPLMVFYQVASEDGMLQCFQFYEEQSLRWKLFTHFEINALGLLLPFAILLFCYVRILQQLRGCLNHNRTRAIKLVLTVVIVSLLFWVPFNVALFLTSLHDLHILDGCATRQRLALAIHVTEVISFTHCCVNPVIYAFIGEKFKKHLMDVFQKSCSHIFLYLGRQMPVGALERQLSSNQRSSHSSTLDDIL

[6] = biological target: T4, human CCR8 (human, UniProt P51685 1-355); experiment: cell-based or functional assay
T4 sequence (P51685 whole entry): as the sequence (P51685 whole entry Y17A) above, with A17Y counted along it

[7] = biological target: T5, loop2 hCCR4-hCCR8 (human, UniProt P51685 1-355); experiment: flow cytometry, transfected Expi293 cells; Δ = significantly reduced vs hCCR8
T5 construct: chimera on Expi293 cells; hCCR8 ranges derived; also called loop2-human CCR4-substituted human CCR8

[8] = biological target: T6, loop1 hCCR4-hCCR8 (human, UniProt P51685 1-355); experiment: as above
T6 construct: chimera on Expi293 cells; hCCR8 ranges derived; also called loop 1-human CCR4-substituted human CCR8

[9] = biological target: T4, human CCR8; experiment: cell-based or functional assay; remark: listed apart in the source

- binding result [1]: no binding
- binding result [2]: no binding
- binding result [3]: no binding
- binding result [4]: no binding
- binding result [5]: no binding
- IC50 (nM), Ca2+ influx by 200 nM hCCL1 [6]: 0.36 nM
- binding result [7]: binds
- binding result [8]: binds
- Neutralizing Activity IC50 (nM), Ca2+ influx by 100 nM hCCL1 [9]: 0.32 nM
B1: 1H4 (antibody, V domains shown)
VH: EVQLVESGGRLVQPKGSLKLSCAASGFTFNTYAMYWIRQAPGKGLEWVARIRSKSNNYATYYADSVKDRFTISRDDSQSMLYLQMNNLKTEDTAMYYCVRARFYYSDYGYAMDYWGQGTSVTVSS
VL: DIVMTQAAPSVPVTPGESVSISCRSSKSLLHSNGNTYLYWFLQRPGQSPQLLIYRMSNLASGVPDRFSASGSGTAFTLRISRVEAEDVGVYYCMQHLEYPLTFGAGTKLELKR
notes: mouse hybridoma antibody
